The nanobody polyreactivity screen of Harvey et al. (2022)

Assay: yeast display, Sf9 membrane polyspecificity reagent, FACS + sequencing; frameworks hold sequencing errors
In short: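 Galactose-induced (36–48 hours) yeast carrying a synthetic nanobody display library were exposed to 10% biotinylated, detergent-solubilized Sf9 membrane reagent at 4 °C for 1 hour. FACS followed streptavidin microbead enrichment, using low and high (top ~1%) gates for expression (anti-HA) and reagent binding (streptavidin). Colony PCR, MiSeq 2 × 250 sequencing and CDR-length filtering followed. Labels for polyreactivity reflect the gate of origin.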

Sequence | polyreactivity (PSR sort gate)
QVQIVESGGGLVQAGGSLRLTCAASGSIFTVYAMGWYRQEPGKERELVAAISSGASTNYADTVKGRFTISRDNATNTVYLQMNSLKPEDTAVYYFAARLYARRLYDYWGQGSQVTVSS | low polyreactivity
QVQLVESGGGLVQAGGSLRLSCAASGITFGHYAMGWYRQAPGKERQLVAGINWSGDGRYYADSVKGRFTISRDNAKNTVYLQMNSLKPEDTAVYYCDAETFYDYGGYDYWGQGTQVTVSS | low polyreactivity
QVQLVESGGGLVQAGGSLRLSCAASGSTFGYYAMGWYRQAPGKEREFVAAITYGDGNTYYADSVKGRFTISRDNAKNTVYLQMNSLKPEDTAVYYCAKYYWAPTGAHGGYGYWGQGTQVTVSS | low polyreactivity
QVQLVESGGGLVHAGGSLRLSCAASGFTFYYYAMGWYRPAPGKERELVAAISSRGGNSYYADSVKGRFTISRDNAKNTVYLQMNSLKPEDTAVYYCASVPLKYDYWGQGTQVTVSS | high polyreactivity
QVQLVESGGGLVQAGGSLRLSCAASGLTFGTNAMGWYRQAPGKERELVAAISTSSGSTYYADSVKGRFTISRDNAKNTVYLQMNSLKPEDTAGYYCAAVTVTKLSYYRYYYWGQGTQVTVSS | low polyreactivity
QVQLVESVGGLVQAGGSLRLSCAASGSIFRRYAMGWYRQAPGKERELVAGISSGGYTNYADSVKGRFTISRDNAKNTVYLQMNSLKPEDTAVYYCAAKQYRYVRYRPVDYWGQGTQVTVSS | high polyreactivity
QVQLVESGGGIVQAGGSLRLSSAASGFIFARYAMGWYRQAPGKERELVAAISSGGRTYYADSVKGRFTISRDNAKNTVYLQMNSLKPEDTAVYYCAADPASSYGKYSYYYWGQGTQVTVSS | high polyreactivity
QVQLVESGGGLVQAGGSLRLSCAASGFIFEPYAMGWYRQAPGKERELVAAISSGGSTYADSVKGRFTISRDNAKNTVYLQMNSLKPEDTAVYYCAADSYYSVWGFYYWGQGTQVTVSS | low polyreactivity
QVQLVESGGGLVKAGGSLRLSCAASGSIFRYYTMGWYRQAPGKEWELVAAINGSGGSTYYADSVKGRFTISRDTAKNTVYLQMNSLKPEDTAVYYCNRVTKEYGLRQYYYWGQGTQVTVSS | low polyreactivity
QVQLVESGGGLVQAGGSLRLSCAASGRILYRYAMGWYRQAPGKERELVAAISYSGGSTSYADSVKGRFTISRDNAKNTVYVQMNSLKPEDTAVYYCAAAYYLLRYKKRYDYWGQGTQVTVSS | high polyreactivity
QVQLVESAGGLLQTGGSLRLSCAASGRTLWYNAMGWYRQAPGKERELVAAISSGGSTNYADSVKGRFTISRDNAKHTVYLQMNSLKPEDTAVYYCAAWLAYSSRYGYWGQGTQVTVSS | low polyreactivity
QVQLVESGGGLVQAGGSLRLSCAASGRIIRIYTMGWYRQARGKERELVAAITKSGGSTSYADSVKGRFTISRDNAKNTVYLQMNSLKPEDTAVYYCNAKGWTRPPGYDYWGQGTQVTVSS | high polyreactivity
QVQLVESGGGLVQAGGSLRLSCAASGSIFPSNVMGWYRQAPGKERELVAAISTTGSTYYADSVKGRFTISRDNAKNTVYLQMNSLKTEDTAVYDCAAEYWSYAHGGQLYGYDYWGQGTQVTVSS | low polyreactivity
QEQLQESGGGLVQAGDSPRLSCAESGYITARTGMGSYRQAPGKEREFVAGIASGTRTHYADSVKGRFTISRDNAKNAVYLQMTSLKPEDTAVYYCAATFGFFYYQYDYWGQGTQVTVSS | low polyreactivity
QVQLVESGGGLVQAGGTLRLSCAASGGTSRSYAMVWYRQAPGKERELVAAISWRGGRTYYADSVKGRFTISRDNAKNTVYLQMNSLKPEDTAVYYCAARQYSQETYDYWGQGSQVTVSS | high polyreactivity
QVQLVDSGGGLVQAGGTLRLSCAATGRTVSKYAMGWYRQAPGKERELVAAITRSGGRTYYADSVKGRFTISRDNAKNTVYLQMNSLKPEDTAVYYCARTTNQHTLATEDDYWGQGTQVTVSS | high polyreactivity
QVQLVESGGGLVQAGGSLRLSCAASGRIIWSYAMGWYRQAPGKERELVAAIRSGGTTDYADSVKGRFTISRDNAKNTVYLQMNSLKPEDTAVYYCAADPYSVYGGDYWGQGTQVTVSS | low polyreactivity
QVQLVESGGGLVQAGGSLRLSCAASGLTFVYYTMGWYRQAPGKERELVAAISGSGDNTYYADSVKGRFTISRDNAKNTVYLQMNSLKPEDTAVYYCAADKSYYYYLFGYDYWGQGTQVTVSS | low polyreactivity
QVQLVETGGGLVQAGGSLRLSCAASGSIFVTNAMGWYRQPPGKEREFVAAISSSDDSTYYADSVKGRFTISRDNAKNTVYLQMHSLKPEDTAVYYCASDWLFNIIAYDYGLDSWGQGTQVTVSS | low polyreactivity
QVQLVESGGGLVQAGGSLRLSCAASGSTFVPYAIGWYRQAPGTERELVAAISSRGGRTSYADSVKGRFTISRDNAKNTVYLQMKRLKPEDTAVYYCIALYPGRLTDYSRSKMEYWGQGTQVTVSS | high polyreactivity
QVQLVESGGGLVQAGVSLRLSCAASGNTFRINTKLCYRQAPGKERDLVATITRRGGSTYYADSVKGRFTISRDNAMNTVYLQMNSLNPEDSAVYYCAARVRGTGVYGGYNYWGQGTQVTVSS | high polyreactivity
QVQLVESGGGLVQAGGSLRLSCAASGSIFGDYVMGWYRQAPGKERELVAAISGNGGRTYYADSVKGRFTISRDNAKNTVYLQMNSLKPEDTAVYYCAKVRSVTIGRDYWGQGTQVTVSS | high polyreactivity

Sequence | polyreactivity (PSR sort gate)
QVQLVESVGGLVQAGGSLRLSCAASGSIFDRYAMGWYRQAPGKERELVAAISTGGSTNYADSVKGRFTISRDNAKNTVYLQMNSLKPEDTAVYYCAARYLYRMYYWGQGTQVTVSS | low polyreactivity
QVQLVESGGGLVQAGGSLRLSCAASGRILPSNAMGWYRQAPGKDRELVATISSSGGDTYYADSVKGRFTISRDNAKNTVYLQMKSLKPEDTAVYSCNAAGRTPSTGFDYDYWGQGTQVTVSS | low polyreactivity
QVQIVDSGGGVVQAGGILRLSSAASGYTFGSYDMGWYRQEPGKERELVAAISGGGSTNYADSVKGRFTISRDNAKNTVYLQMNCLKPEDTAVYYCAAYPYLYPLRFEEYDHWGQGTQVTVSS | low polyreactivity
QVQLVESGRALVQAGGSLRLSCAASGNTFEDYAMGWYRQAPGKERELVAAINSGGSTNYADSVKGRFTISRDNAKNTVYLQLNSLKPEDTAVYYCAAEPGEGFDYWGQGTQVTVSS | low polyreactivity
QVQLVESGGGLVQAGGSLRLSCAATGSIFRWNTMGWYRPAPGKERELVAVITWSGDSTYYADSVKGRFTISRDNAKNTVYLQMNSLKPEDTAVYYCAVDVVTSYYELTGSFNYWGQGTQVTVSS | low polyreactivity
QLQLVETGGGIVQAAGSLRLSCAASGFTYNRYAKGWYRKAPGKERELVAAISRGGTTYADSVKGRFTISRDNAKNTVYLQMNSLKPEDTAVYYCNRLRYGYPQEFGYWGQGTQVTVSS | high polyreactivity
QVQLVESGGGLVQAGGSLRLSCAASGIIFSSSAMGWYRQAPGKEREVVAAITSCGNTNYADSVKGRFTISRDNAKNTVYLQMNSLNPEDTAVYYCNAETSFVWLAWHPYGFGDWGQGTQVTVSS | low polyreactivity
QFQRGESGGGLVQAGGSLRLSCAASGRLFYSYAMGGYRQAPGKERELVAAINSGDRTYYADSVKGRFTISRDNAKNTVYLQKNSLNPEDPAVYYCATRWFAFPWDEYNYWGQGSQVTVSS | low polyreactivity
QVQLVESGGGLVQAGGSLRLRCAASGSTSPNAMGWYRQAPGKERELVAAIWSGGTYYADSVKGRFTISRDNAKNTVYLQMNSLKPEDTAVYYCAVTGVYRGFRYGYWGQGTQVTVSS | low polyreactivity
QVQLVESGGGLVQAGGILRLSCAASGSIFRVYAMGWYRQAPGKERELVAGITSTGTRTYYADSVKGRFTISRDNAKNPVSLQKNSLKPEDTAVYYCAARDTYRKAYYYWGHGTQVTVSS | high polyreactivity
QVQLVESGGGLVQAGGSLRLSCAASGSIFISNAMGWYRQAPGKERELVAAISSSGGRTYYADSVKGRFTISRDNAKNTVYLQMNSLKPEDTAVYYCAVRGLYQGRRRYSSEYDYWGQGTQVTVSS | high polyreactivity
QVQLVESGGGLVQAGGSLRLSCAASGFTFYPYAMGWYRQAPGKERELVASFTSAGGTNYADSVKGRFTISRDNAKNTVYLQMNSLKPEDTAVYYCAAKYRSRGPDYYFKSDYWGQGTQVTVSS | low polyreactivity
QVQLVESGGGLVQAGCSLRLSCAASGSIFGYNAMGWYRQAPGKERELVAAITGSGGSTYYADSVKGRFTISRDNAKNTVYLQMNSLKPEDTAVYYCADDLFGGPLGYWDYDYWGQGTQVTVSS | low polyreactivity
QVQLVESGGGLVHAGGSLRLSCAASGSIFGVNARGWYRPAPGKERELVAAISSTGSRTYYADSVQGRFTISRDNAKNTVYLQRNSLKPEETAVYYCAAYLTRYGAYYWGQGTQVTVSS | high polyreactivity
QVQLVESGGGLVQAGGSLRLSCAASGSTFYPYAMGWYRQAPGKERELVAGISWSGGSTYYADSVKGRFTISRDNAKNTVYLQMNSLKPEDTAVYSCAVDVYWSVIYDYWGQGTQVTVSS | low polyreactivity
QVQLVESGGGLVQAGGSLRLSCAASGNTFGFYAMGWYRQAPGKERELVAGITSGDSTYYADSVKGRFTISRDNAKNTVYLQMNSLKPEDTAVYYCATAPYVTSRRYGPYEYWGQGTQGTVSS | low polyreactivity
QVQLVESGGGLVQAGGSLRLSCAASGSTFYYNVMGWYRQAPGKEREFVAAITQRGGSTYYADSVKGRFTISRDNAKNTVYLQMNSLKPEDTAVYYCAARTRYDFDWGQGTQVTVSS | high polyreactivity
QVQLVESGGGLVQAGGSLRLSCAAAGITFTVYAMGWYRPAPGKERELVAAISQSGGSTYYADSVKGRFTISRDNAKNTVSLQMNSMKPEDTAVYSCNADTVWVPYRTYIPFDYWGQGTQVTVSS | low polyreactivity
QVQLVESGVGLVQAGGSLRLSCAASGRTFVYAMGWYRQAPGKERELVAAISYNGGSTYYADSVKGRFTISRDNAKNTVYLQMNSLKPEDTAVYYCAADISVGRYGDMDYWGQGTQVTVSS | low polyreactivity
QVQLVESGGGLVQAGGSLRLSCAASGSIFTPNAMGWYRQAPGKERELVAAISSSSDRTSYADSVKGRFTISRDNAKYTVYLQMNSLKPEDTAVYYCAAYSQKRYYWGQGTQVTVSS | high polyreactivity
QVQLVESVGGLVQAGGSLRLSCAASGSTSSYYTMGWYRQAPGKERELVAYADSVKGRFTISRDNAKNTVYLQMNSLKPEDTAVYYCAAPRTYYSELTSPYDYWGQGTQVTVSS | low polyreactivity
